According to patent publication US7374923B2, “Polypeptide” (Astellas Pharma Inc., priority 2002, dated 2008):

Key:
MD8S protein = assay: Inhibition of digestion of recombinant IGFBP-5 by MD8S protein (western blotting); format: biochemical, human
Procedure: The MD8S enzyme solution obtained in Example 8(1) was reacted with recombinant IGFBP-5 obtained in Example 9(1) in a 50 mmol/L tris-HCl (pH7.4) buffer containing 50 mmol/L NaCl, 2 mmol/L CaCl2, 20 μg/mL bovine serum albumin (BSA), and 0.1% CHAPS at 37° C. overnight. In this connection, concentrations of the MD8S protein and recombinant IGFBP-5 in the reaction solution were 1.5 μg/mL and 10 μg/mL, respectively.
Using an aliquot of the reaction solution, SDS-PAGE was carried out, and then a transfer to a PVDF membrane and blocking was carried out. Recombinant IGFBP-5 was detected by reacting a biotinylated M2 antibody (Sigma) as the first antibody, followed by a horseradish peroxidase-labeled streptavidin (Amersham) as the second antibody, and by using an ECL Western Blotting Detecting System (Amersham Pharmacia).
Substances inhibiting the activity of digesting IGFBP-5 by the MD8S protein can be screened by the reaction system utilizing western blotting performed in Example 9(2). In this Example, the procedure described in Example 9(2) was repeated, except that various compounds having a hydroxamic acid scaffold as a compound to be tested were added to the reaction system containing the MD8S enzyme solution and recombinant IGFBP-5, to measure an inhibitory intensity of the activity of digesting IGFBP-5. […]

IGFBP-3 = assay: Activity of digesting IGFBP-3 by MD8S protein; format: biochemical; conditions: commercial IGFBP-3 10 μg/mL, MD8S 1.5 μg/mL, 37° C. overnight; new band of 25 kDa
Procedure: (§1) The MD8S enzyme solution obtained in Example 8(1) was reacted with commercially available IGFBP-3 or IGFBP-5 (upstate biotechnology) in a 50 mmol/L tris-HCl(pH7.4) buffer containing 50 mmol/L NaCl, 2 mmol/L CaCl2, 20 μg/mL bovine serum albumin (BSA), and 0.1% CHAPS at 37° C. overnight. In this connection, concentrations of the MD8S protein and IGFBP-3 (or IGFBP-5) in the reaction solution were 1.5 μg/mL and 10 μg/mL, respectively.
(§2) Using an aliquot of the reaction solution, sodium dodecyl sulfate polyacrylamide gel electrophoresis (SDS-PAGE) was carried out, and then a transfer to a PVDF membrane and blocking was carried out. IGFBP-3 was detected using an anti-IGFBP-3 polyclonal antibody (R&D System) as the first antibody and a peroxidase-labeled rabbit anti-goat IgG polyclonal antibody (ZYMED) as the second antibody. IGFBP-5 was detected using an anti-IGFBP-5 polyclonal antibody (upstate biotechnology) as the first antibody and a peroxidase-labeled goat anti-rabbit IgG polyclonal antibody (MBL) as the second antibody.

IGFBP-5 = assay: Activity of digesting IGFBP-5 by MD8S protein; format: biochemical, human; conditions: MD8S 1.5 μg/mL, 37° C. overnight
Procedure: as §1, §2
The MD8S enzyme solution obtained in Example 8(1) was reacted with recombinant IGFBP-5 obtained in Example 9(1) in a 50 mmol/L tris-HCl (pH7.4) buffer containing 50 mmol/L NaCl, 2 mmol/L CaCl2, 20 μg/mL bovine serum albumin (BSA), and 0.1% CHAPS at 37° C. overnight. […]

CCCOCC(C(=O)NC(Cc1ccc(OC)cc1)C(=O)NC)C(CSC)C(=O)O (stereo not drawn) [compound A, N^α-[(3-carboxy-4-methylthio-2-propoxymethyl)butyryl]-N,O-dimethylthyrosineamide]
IC50 (MD8S protein; MD8S 1.5 μg/mL, recombinant IGFBP-5 10 μg/mL, 37° C. overnight, western blot image analysis, read-out: intensity of the inhibition activity (IC50) of the activity of digesting IGFBP-5): 3.3 µM | activity of digesting recombinant IGFBP by the MD8S protein in presence of compound (FIG. 3) (MD8S protein; electrophoresis, compound A 1 nmol/L to 10 μmol/L): inhibited

B1: MD8S protein: extracellular region of human MD8 protein, 1st to 646th amino acids of SEQ ID NO: 2, with C-terminal FLAG tag (protein, listed as Homo sapiens)
chain: MRGLGLWLLGAMMLPAIAPSRPWALMEQYEVVLPRRLPGPRVRRALPSHLGLHPERVSYVLGATGHNFTLHLRKNRDLLGSGYTETYTAANGSEVTEQPRGQDHCFYQGHVEGYPDSAASLSTCAGLRGFFQVGSDLHLIEPLDEGGEGGRHAVYQAEHLLQTAGTCGVSDDSLGSLLGPRTAAVFRPRPGDSLPSRETRYVELYVVVDNAEFQMLGSEAAVRHRVLEVVNHVDKLYQKLNFRVVLVGLEIWNSQDRFHVSPDPSVTLENLLTWQARQRTRRHLHDNVQLITGVDFTGTTVGFARVSAMCSHSSGAVNQDHSKNPVGVACTMAHEMGHNLGMDHDENVQGCRCQERFEAGRCIMAGSIGSSFPRMFSDCSQAYLESFLERPQSVCLANAPDLSHLVGGPVCGNLFVERGEQCDCGPPEDCRNRCCNSTTCQLAEGAQCAHGTCCQECKVKPAGELCRPKKDMCDLEEFCDGRHPECPEDAFQENGTPCSGGYCYNGACPTLAQQCQAFWGPGGQAAEESCFSYDILPGCKASRYRADMCGVLQCKGGQQPLGRAICIVDVCHALTTEDGTAYEPVPEGTRCGPEKVCWKGRCQDLHVYRSSNCSAQCHNHGVCNHKQECHCHAGWAPPHCAKLLTE
modifications: C-terminal FLAG tag
activity of digesting IGFBP-3 (IGFBP-3): exhibits an activity of digesting IGFBP-3 | activity of digesting IGFBP-5 (IGFBP-5; commercial IGFBP-5 10 μg/mL, new bands 12 to 25 kDa): exhibits an activity of digesting IGFBP-3 and IGFBP-5 | activity of digesting recombinant IGFBP-5 (IGFBP-5; recombinant IGFBP-5-FLAG 10 μg/mL): exhibits an activity of digesting IGFBP-5
